This is an account of results in the RNAGym collection of RNA variant scans (doi:10.7554/elife.80360).

First the molecules themselves.
B1: Hairpin Ribozyme (parent)
chain: GUCCUCUUUCACGUGCGCGUGAAAGAGAGAAGUGAACCAGAGAAACACACGUUGUGGUAUAUUACCUGGUA

This data set covers variants of B1. Kind of data set: self-cleavage, relative activity (ratio to wild type); higher = more cleavage; co-transcriptional.
Regarding U52A A71U, the self-cleavage turned out to be 0.915.

In the case of U52A A71G, the self-cleavage turned out to be 1.12.

Turning to A49C U55G, the self-cleavage was 0.343.

Turning to C50A U67G, the self-cleavage amounted to 0.118.

For C50A U67C, the self-cleavage was 0.0958.

On to U53C G56U, for which the self-cleavage turned out to be 0.196.

As for G54U U58G, the self-cleavage amounted to 0.401.

With G54U U58C, the self-cleavage is 0.713.

Turning to G54A A71C, the self-cleavage came out at 0.977.

With C50G U62A, the self-cleavage came to 0.213.

Turning to U52G U58G, the self-cleavage is 0.498.

For the variant G51U U62G, the self-cleavage is 0.129.

On to G51U A71C, for which the self-cleavage stood at 1.46.

With G51U G68U, the self-cleavage came out at 0.318.

As to C50U U55G, the self-cleavage came to 0.368.

As to G51C G69U, the self-cleavage turned out to be 0.224.

As for G51C G69A, the self-cleavage is 0.336.

Regarding U53C U60C, the self-cleavage worked out at 1.5.

For G54A C65U, the self-cleavage was found to be 0.102.

In the case of A49G C66U, the self-cleavage came to 0.258.

With G54U U60G, the self-cleavage was 0.29.

Turning to G54U U60A, the self-cleavage is 0.252.

Regarding G51A G68C, the self-cleavage is 0.31.

G51A G68U: the self-cleavage worked out at 0.474.

As for G51A G68A, the self-cleavage stood at 0.555.

With U52G U70G, the self-cleavage worked out at 0.933.

As to C50G U70G, the self-cleavage is 0.314.

With G51A G56C, the self-cleavage was found to be 0.148.

Consider U53A G56A, for which the self-cleavage stood at 0.0996.

U53A G56C: the self-cleavage was determined as 0.208.

As to U52C G69A, the self-cleavage was determined as 0.416.

As for U53G C66G, the self-cleavage is 0.152.

As to U53G C66U, the self-cleavage was 0.552.

Turning to C50U A61G, the self-cleavage worked out at 0.199.

With U53A U55C, the self-cleavage worked out at 0.256.

Turning to U53A U55G, the self-cleavage worked out at 0.389.

Turning to C50A G57A, the self-cleavage amounted to 0.138.

As for G51A G69A, the self-cleavage was 0.596.

Consider G51A G69U, for which the self-cleavage is 0.439.

In the case of G51A U67G, the self-cleavage amounted to 0.628.

As to G51A C66G, the self-cleavage amounted to 0.611.

Regarding C50U G54C, the self-cleavage turned out to be 0.534.

For the variant G54A A61G, the self-cleavage was 0.397.

Regarding G54A A61C, the self-cleavage came to 0.192.

Turning to C50G A64G, the self-cleavage amounted to 0.164.

G51C U62C: the self-cleavage was found to be 0.239.

In the case of G51U U63C, the self-cleavage was 0.136.

Take U53C C65A: the self-cleavage was determined as 1.06.

As for U53C C65G, the self-cleavage stood at 0.236.

On to C50A C66U, for which the self-cleavage stood at 0.15.

In the case of C50A C66G, the self-cleavage came out at 0.217.

On to U53A A71U, for which the self-cleavage came out at 0.706.

On to C50A U53C, for which the self-cleavage worked out at 0.296.

For U53G G68C, the self-cleavage came to 0.18.

In the case of U53G G68U, the self-cleavage amounted to 0.187.

Take G54C U67A: the self-cleavage turned out to be 0.167.

U52C U70A: the self-cleavage is 1.22.

Turning to A49G U60G, the self-cleavage came out at 0.547.

For the variant C50G C66A, the self-cleavage is 0.193.

Consider C50G U55G, for which the self-cleavage was determined as 0.368.

As to C50G U55A, the self-cleavage came out at 0.153.

In the case of C50A U63C, the self-cleavage was determined as 0.198.

Consider A49U G57U, for which the self-cleavage was 0.228.

Regarding A49U G57A, the self-cleavage was found to be 0.192.

As to G54A C66G, the self-cleavage came to 0.113.

For the variant U52G A71U, the self-cleavage came out at 0.572.

On to A49G U55G, for which the self-cleavage was found to be 0.498.

In the case of A49G U55C, the self-cleavage is 1.17.

Take A49C U60A: the self-cleavage amounted to 0.333.

A49C U60C: the self-cleavage amounted to 0.165.

For the variant G51C C65U, the self-cleavage was determined as 0.296.

As to G51C C65A, the self-cleavage stood at 0.857.

Consider U53A A61G, for which the self-cleavage is 0.0972.

As to U53A A61C, the self-cleavage was found to be 0.178.

As for A49C U62A, the self-cleavage came out at 0.15.

As to G54A U62C, the self-cleavage worked out at 0.195.

U52G C66A: the self-cleavage was 0.189.

As for G54A A64G, the self-cleavage amounted to 0.403.

With G54A A64U, the self-cleavage was 0.114.

Consider G54A A64C, for which the self-cleavage is 0.152.

As to G51A G57C, the self-cleavage turned out to be 0.158.

Consider G51A G57A, for which the self-cleavage worked out at 0.142.

Turning to C50A G69C, the self-cleavage was determined as 0.12.

As for G51A U55A, the self-cleavage amounted to 0.34.

Turning to G51A U55G, the self-cleavage is 0.407.

With G51A U55C, the self-cleavage was 0.405.

Consider G54C U55G, for which the self-cleavage stood at 0.25.

For the variant U53C G69C, the self-cleavage came to 0.43.

Regarding U53C G69A, the self-cleavage came out at 0.607.

In the case of G51A U58A, the self-cleavage is 0.674.

As for U55A G68C, the self-cleavage worked out at 0.098.

Consider U52A U67A, for which the self-cleavage amounted to 0.307.

U52A U67C: the self-cleavage is 0.239.

With A49G G51C, the self-cleavage is 0.495.

Take A49G G51A: the self-cleavage is 0.651.

In the case of G54U G56U, the self-cleavage turned out to be 0.203.

Turning to G51U A59G, the self-cleavage is 0.138.

In the case of G51U A59U, the self-cleavage was found to be 0.0798.

On to G54C U70C, for which the self-cleavage was determined as 0.146.

On to U53G A64C, for which the self-cleavage came out at 0.0581.

On to U55A G57U, for which the self-cleavage stood at 0.146.

On to G51U G57A, for which the self-cleavage amounted to 0.122.

G54C A59G: the self-cleavage came out at 0.0783.

Regarding G54C A59U, the self-cleavage is 0.18.

In the case of U52G U62A, the self-cleavage came to 0.187.

Turning to U52C U67A, the self-cleavage was determined as 0.178.

Turning to U55A A71U, the self-cleavage worked out at 0.18.

In the case of U53A C66A, the self-cleavage was 0.205.

For U52C C66A, the self-cleavage is 0.279.

For G54U C65U, the self-cleavage was determined as 0.171.

Turning to U53A U70G, the self-cleavage came out at 0.987.

Regarding U53A U70C, the self-cleavage was determined as 0.951.

Consider U53A U70A, for which the self-cleavage came to 0.987.

For the variant A49G G57C, the self-cleavage is 0.0948.

As for A49G G57A, the self-cleavage amounted to 0.111.

For G51A U60A, the self-cleavage turned out to be 1.18.

On to G51A U60G, for which the self-cleavage came out at 0.672.

Regarding G51A U60C, the self-cleavage amounted to 0.944.

For U52C U55G, the self-cleavage is 0.301.

Take A49U G69U: the self-cleavage worked out at 0.193.

For the variant A49U G69C, the self-cleavage was determined as 0.139.

On to G51C U52A, for which the self-cleavage was 0.761.

Consider G51C U52G, for which the self-cleavage was 0.469.

On to A49G U63G, for which the self-cleavage was found to be 0.158.

As to G54C G69U, the self-cleavage was found to be 0.113.

As to U53C U67A, the self-cleavage amounted to 0.28.

Take U53C U67C: the self-cleavage turned out to be 0.279.

As to U53C U67G, the self-cleavage is 0.462.

In the case of C50A, the self-cleavage is 0.283.

Consider C50U, for which the self-cleavage amounted to 0.396.

With C50G, the self-cleavage was determined as 0.275.

As for G54A U58G, the self-cleavage was found to be 0.178.

Consider G54A U58C, for which the self-cleavage worked out at 0.635.

Consider C50G C65G, for which the self-cleavage was determined as 0.161.

Take U53G U55G: the self-cleavage was 0.327.

In the case of U52G U63C, the self-cleavage turned out to be 0.0944.

As to A49U U70G, the self-cleavage is 0.39.

As to U52G U67C, the self-cleavage was 0.203.

Take U53G C65A: the self-cleavage came to 0.641.

On to U53G A59U, for which the self-cleavage came out at 0.119.

Consider U52A A61U, for which the self-cleavage is 0.094.

U52A A61G: the self-cleavage amounted to 0.22.

Regarding C50A A64C, the self-cleavage came out at 0.124.

In the case of C50A A64U, the self-cleavage worked out at 0.13.

As to C50G A61U, the self-cleavage was found to be 0.248.

Take C50G A61G: the self-cleavage was 0.175.

C50G A61C: the self-cleavage came out at 0.0643.

For G51C U63C, the self-cleavage amounted to 0.1.

G51A A64C: the self-cleavage is 0.173.

On to G54U G68U, for which the self-cleavage amounted to 0.302.

For the variant U53G U58G, the self-cleavage came to 0.405.

U53G U58C: the self-cleavage came to 0.987.

As to C50G U52A, the self-cleavage is 0.216.

Take C50A A59G: the self-cleavage came out at 0.0618.

With C50A A59C, the self-cleavage was determined as 0.167.

For the variant G54C U60C, the self-cleavage came out at 0.47.

For the variant G54C U60A, the self-cleavage worked out at 0.272.

On to U53C A61C, for which the self-cleavage is 0.142.

As for A49G G56A, the self-cleavage is 0.204.

With U53G U67C, the self-cleavage amounted to 0.136.

Turning to U53G U67G, the self-cleavage came out at 0.119.

U53G U67A: the self-cleavage worked out at 0.182.

For the variant C50U U67C, the self-cleavage was 0.157.

As for U52A U63G, the self-cleavage came out at 0.121.

Regarding U55A, the self-cleavage was 0.258.

Regarding G54A G69A, the self-cleavage is 0.137.

For A49U U55G, the self-cleavage amounted to 0.366.
